Measurements published in publication PMC10141624.

Biological target: HA-T-AGM protein (recombinant soluble trimeric hemagglutinin of Influenza A/Guangdong-Maonan/SWL1536/2019 (H1N1) pdm09-like virus) (Influenza A/Guangdong-Maonan/SWL1536/2019 (H1N1) | not stated)
Test: SEC

Substance: HA-T-AGM protein (recombinant soluble trimeric hemagglutinin of Influenza A/Guangdong-Maonan/SWL1536/2019 (H1N1) pdm09-like virus)
- stoichiometry N: 3
